This is an account of results in patent publication US12338277.

Common to all, as to assay: cell-based or functional assay
Experiment [1] has as its target HIV-1 Env of pseudovirus X2088_c9 (HIV-1).
The target in experiment [2] is HIV-1 envelope of pseudovirus CAAN5342.A2 (HIV-1).
Experiment [3] has as its target HIV-1 envelope glycoprotein of pseudovirus PVO.4 (clade B) (HIV-1).
Experiment [4] concerns the target HIV-1 envelope glycoprotein of pseudovirus CNE30 (clade BC) (HIV-1).
Experiment [5] has as its target HIV-1 envelope glycoprotein of pseudovirus RHPA4259.7 (clade B) (HIV-1).
Experiment [6] has as its target HIV-1 envelope glycoprotein of pseudovirus CNE19 (clade BC) (HIV-1).
Experiment [7] concerns the target HIV-1 envelope glycoprotein of pseudovirus WITO4160.33 (clade B) (HIV-1).
Experiment [8] has as its target HIV-1 envelope glycoprotein of pseudovirus 3365.v2.c2 (clade A) (HIV-1).
Experiment [9] addresses HIV-1 envelope glycoprotein of pseudovirus TRJO4551.58 (clade B) (HIV-1).
Experiment [10] addresses HIV-1 envelope glycoprotein of pseudovirus 1394C9G1(Rev-) (clade C (T/F)) (HIV-1).
The target of experiment [11] is HIV-1 envelope glycoprotein of pseudovirus 62357_14_D3_4589 (clade B (T/F)) (HIV-1).
Experiment [12] has as its target HIV-1 envelope glycoprotein of pseudovirus CNE58 (clade BC) (HIV-1).
Experiment [13] concerns the target HIV-1 envelope glycoprotein of pseudovirus BJOX009000.02.4 (clade CRF01_AE) (HIV-1).
Experiment [14] has as its target HIV-1 envelope glycoprotein of pseudovirus Q842.d12 (clade A) (HIV-1).
Experiment [15] concerns the target HIV-1 envelope glycoprotein of pseudovirus X1193 c1 (clade G) (HIV-1).
In experiment [16] the target is HIV-1 envelope glycoprotein of pseudovirus HIV-16055-2.3 (clade C) (HIV-1).
The target of experiment [17] is HIV-1 Env of pseudovirus BJOX009000.02.4 (HIV-1).
Experiment [18] concerns the target HIV-1 envelope glycoprotein of pseudovirus QH0692.42 (clade B) (HIV-1).
For experiment [19], the target named is HIV-1 envelope glycoprotein of pseudovirus 6244_13_B5_4576 (clade B (T/F)) (HIV-1).
The target of experiment [20] is HIV-1 envelope glycoprotein of pseudovirus 263-8 (clade CRF02_AG) (HIV-1).
For experiment [21], the target named is HIV-1 envelope glycoprotein of pseudovirus X1254_c3 (clade G) (HIV-1).

10-1074 (antibody), sequence (VH): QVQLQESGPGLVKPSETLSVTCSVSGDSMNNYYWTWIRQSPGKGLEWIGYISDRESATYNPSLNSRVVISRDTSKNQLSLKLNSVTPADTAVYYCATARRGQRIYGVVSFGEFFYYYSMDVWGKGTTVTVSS
10-1074 (antibody), sequence (V domain): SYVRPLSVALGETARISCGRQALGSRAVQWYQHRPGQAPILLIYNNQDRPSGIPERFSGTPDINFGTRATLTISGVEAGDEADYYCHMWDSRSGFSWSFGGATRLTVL
10-996 (antibody), sequence (VH): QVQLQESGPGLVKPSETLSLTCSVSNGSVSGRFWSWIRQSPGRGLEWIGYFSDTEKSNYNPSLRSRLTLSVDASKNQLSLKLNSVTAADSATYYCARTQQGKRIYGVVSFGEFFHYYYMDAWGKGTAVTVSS
10-996 (antibody), sequence (VL): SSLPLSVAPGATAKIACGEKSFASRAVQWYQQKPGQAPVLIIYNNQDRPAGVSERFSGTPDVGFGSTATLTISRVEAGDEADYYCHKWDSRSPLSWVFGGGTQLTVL

Regarding 10-996 (antibody), in experiment [1], the IC80 (TZM-bl neutralization) turned out to be 0.014 µg/mL. In experiment [2], this substance gave an IC50 (TZM-bl neutralization) of 13 ng/mL.
Take PGT121 (antibody): the IC50 in the TZM-bl neutralization assay in [3] is 0.945 µg/mL; in experiment [4], 0.559 µg/mL; in experiment [5], 0.054 µg/mL; in experiment [6], 0.189 µg/mL; in experiment [7] it was 6.01 µg/mL; in experiment [8], 7.35 µg/mL. The IC50 in the TZM-bl neutralization assay in experiment [9] was 35.3 µg/mL; in experiment [10] it was 3.37 µg/mL; in [11] it was 45.6 µg/mL; in [12], above 50 µg/mL; in experiment [13] it was 37.3 µg/mL; in [14], 0.074 µg/mL. For the same substance, the IC50 in the TZM-bl neutralization assay in [15] is 0.202 µg/mL; in [16], 4.29 µg/mL; in experiment [18] it was 8.54 µg/mL; in [19], 1.88 µg/mL; in [20] it was 24.6 µg/mL; in [21], 0.199 µg/mL. This substance also registered an IC80 (TZM-bl neutralization) in [17] of 37.3 µg/mL.
For 10-1074 (antibody), the IC50 in the TZM-bl neutralization assay was 0.36 µg/mL in [3]; 1.2 µg/mL in experiment [4]; 0.118 µg/mL in [5]; 50 µg/mL in [6]; 2.11 µg/mL in experiment [7]; 0.45 µg/mL in [8]. In addition, the IC50 in the TZM-bl neutralization assay is 0.634 µg/mL in [9]; 0.191 µg/mL in experiment [10]; above 50 µg/mL in experiment [11]; 0.968 µg/mL in experiment [12]; above 50 µg/mL in [13]; above 50 µg/mL in [14]. Also, the IC50 in the TZM-bl neutralization assay in [15] was 0.475 µg/mL; in [16] it was above 50 µg/mL; in experiment [18], 0.929 µg/mL; in experiment [19], 0.922 µg/mL; in experiment [20], 6.53 µg/mL; in [21], 0.297 µg/mL. Besides, the IC80 (TZM-bl neutralization) in [1] was 0.014 µg/mL; in [17], above 50 µg/mL. For the same substance, the IC50 (TZM-bl neutralization) in experiment [2] is 7 ng/mL.
